The results in this text go back to US20110300138A1 (published 2011).

In assay [1] the target is TSH receptor (TSHR), full length human, coated on tubes (human) (UniProt P16473). The assay is described as follows: inhibition of 125I-TSH binding to TSHR coated tubes; 10 µg/mL, diluted in HBD serum pool.
Assay [2] deals with thyroid stimulating hormone receptor (TSHR), full length human TSHR (human) (UniProt P16473). The assay is described as follows: TSH-biotin competition ELISA, TSHR coated wells; negative control, 0.01 µg/mL in assay buffer. For orientation: In an ELISA, binding on a coated surface is turned into a signal by an enzyme label.
In assay [3] the target is TSH receptor (full length human TSHR) (human) (UniProt P16473). Kind of assay: competition ELISA: inhibition of M22 Fab-peroxidase (competitor) binding to TSHR coated wells; negative control at 0.01 µg/mL diluted in HBD serum pool.
For assay [4], the target named is TSH receptor (TSHR), full length human, coated on tubes (human) (UniProt P16473). The assay is described as follows: inhibition of 125I-K1-18 IgG binding to TSHR coated tubes; competitor 125I-K1-18 IgG; negative control sample at 1 µg/mL in assay buffer.
The target is the same in assay [5]. The assay is described as follows: inhibition of 125I-K1-18 IgG binding to TSHR coated tubes; competitor 125I-K1-18 IgG; negative control sample at 10 µg/mL in HBD serum; mean of duplicate.
The target of assay [6] is TSHR (full length) coated on tubes (human) (UniProt P16473). Kind of assay: inhibition of 125I-K1-18 Fab (competitor) binding to TSHR coated tubes; negative control 10 µg/mL in assay buffer.
The target is the same in assay [7]. The assay is described as follows: inhibition of 125I-K1-18 Fab (competitor) binding to TSHR coated tubes; negative control 0.01 µg/mL in assay buffer.
Assay [8] has as its target human thyroid stimulating hormone receptor (TSHR), full length (human) (UniProt P16473). Kind of assay: 125I-K1-70 Fab (competitor) binding to TSHR coated tubes; negative control MAb 0.1 µg/mL in HBD serum.
In assay [9] the target is thyroid stimulating hormone receptor (TSHR), full length, coated on tubes (human) (UniProt P16473). The assay is described as follows: inhibition of 125I-TSH binding, TSHR coated tubes; antibody 0.001 µg/mL in assay buffer; mean of duplicate.
In assay [10] the target is TSH receptor (full length human TSHR) coated on tubes (human) (UniProt P16473). The assay is described as follows: 125I-TSH binding inhibition, TSHR coated tubes; 10 ng/mL, in assay buffer.
Assay [11] concerns the target human TSH receptor (full length) coated on ELISA plate wells (human) (UniProt P16473). The assay is described as follows: TSH-biotin binding inhibition ELISA, TSHR coated wells; 0.001 µg/mL in assay buffer + 100 µg/mL 5B3 IgG.
Assay [12] addresses TSHR with Lys250 mutated to Ala (expressed in CHO cells) (human) (UniProt P16473). The assay is described as follows: cell-based or functional assay.
Assay [13] deals with wild type TSHR expressed in CHO cells (human) (UniProt P16473). The assay is described as follows: cell-based or functional assay.
The target of assay [14] is TSHR (full length) coated on tubes (human) (UniProt P16473). The assay is described as follows: inhibition of 125I-K1-18 Fab (competitor) binding to TSHR coated tubes; test sample 1 µg/mL in HBD serum.
In assay [15] the target is TSHR (thyroid stimulating hormone receptor), full length human (human) (UniProt P16473). Kind of assay: competitor ^125I-K1-70 IgG, TSHR coated tubes; 0.01 µg/mL in assay buffer.
Assay [16] deals with thyroid stimulating hormone receptor (TSHR), full length human TSHR (human) (UniProt P16473). The assay is described as follows: TSH-biotin competition ELISA, TSHR coated wells; 0.01 µg/mL in assay buffer.
Assay [17] addresses TSHR (full length) coated on tubes (human) (UniProt P16473). Kind of assay: inhibition of 125I-K1-18 Fab (competitor) binding to TSHR coated tubes; test sample 0.01 µg/mL in assay buffer.
Assay [18] addresses TSH receptor (TSHR), full length human, coated on tubes (human) (UniProt P16473). Kind of assay: inhibition of 125I-K1-18 IgG binding to TSHR coated tubes; competitor 125I-K1-18 IgG; sample at 0.01 µg/mL in assay buffer.
Assay [19] shares this target. The assay is described as follows: inhibition of 125I-K1-18 IgG binding to TSHR coated tubes; competitor 125I-K1-18 IgG; sample at 1 µg/mL in assay buffer.
For assay [20], the target named is TSH receptor (TSHR) coated on tubes (human) (UniProt P16473). Kind of assay: inhibition of 125I-K1-70 IgG binding to TSHR coated tubes; sample 0.1 µg/mL in HBD serum pool.
Assay [21] has as its target TSH receptor (TSHR), full length human, coated on tubes (human) (UniProt P16473). The assay is described as follows: inhibition of 125I-TSH binding to TSHR coated tubes; 0.01 µg/mL, diluted in assay buffer.
Assay [22] has as its target thyroid stimulating hormone receptor (TSHR), full length, coated on tubes (human) (UniProt P16473). Kind of assay: inhibition of 125I-TSH binding, TSHR coated tubes; antibody 0.1 µg/mL in assay buffer; mean of duplicate.
Assay [23] has as its target TSH receptor (TSHR), full length human, coated on tubes (human) (UniProt P16473). The assay is described as follows: inhibition of 125I-K1-18 IgG (competitor) binding to TSHR coated tubes; test sample at 100 µg/mL in assay buffer.
For assay [24], the target named is human thyroid stimulating hormone receptor (TSHR), full length (human) (UniProt P16473). The assay is described as follows: 125I-K1-18 Fab competition, TSHR coated tubes; 0.1 µg/mL in HBD.
Assay [25] shares this target. The assay is described as follows: 125I-K1-18 Fab competition, TSHR coated tubes; 100 µg/mL in HBD.

In the case of 5B3 IgG (antibody), the Inhibition of binding (%) in assay [1] is -1.9%; in [2] it was -5.9%; in assay [3], 4.3%; in [4] it was -3.8%; in assay [5], -0.1%; in [6] it was 0.6%. The Inhibition of binding (%) in assay [7] is 0%; in assay [8], -8.7%.

Regarding M22 IgG (antibody), the Inhibition of binding (%) was 1.5% in [9] and 26.4% in [10]. Further, in assay [11], the % inhibition of TSH-biotin binding is -7.7%.

Consider TSH (ligand), for which, in [12], the Cyclic AMP produced, TSH 0.01 ng/mL was 8.29 pmol/mL; the Cyclic AMP produced, TSH 0.03 ng/mL is 12.6 pmol/mL; the Cyclic AMP produced, TSH 0.1 ng/mL came to 28.8 pmol/mL; the Cyclic AMP produced, TSH 0.3 ng/mL was found to be 66.2 pmol/mL. In [12], the Cyclic AMP produced, TSH 1 ng/mL is 87.9 pmol/mL; the Cyclic AMP produced; TSH 3 ng/mL turned out to be 110 pmol/mL; the Mutated/Wild type (%) of cyclic AMP produced, TSH 0.01 ng/mL was 207%; the Mutated/Wild type (%) of cyclic AMP produced, TSH 0.03 ng/mL was determined as 189%. Also, in [12], the Mutated/Wild type (%) of cyclic AMP produced, TSH 0.1 ng/mL came to 147%; the Mutated/Wild type (%) of cyclic AMP produced, TSH 0.3 ng/mL was found to be 147%; the Mutated/Wild type (%) of cyclic AMP produced, TSH 1 ng/mL is 116%; the Mutated/wild type (%) of cyclic AMP produced; TSH 3 ng/mL was 126%. In assay [13], this molecule came in with a Cyclic AMP produced, TSH 0.01 ng/mL, wild type TSHR of 2.5 pmol/mL; a Cyclic AMP produced, TSH 0.03 ng/mL, wild type TSHR of 4.29 pmol/mL; a Cyclic AMP produced, TSH 0.1 ng/mL, wild type TSHR of 10.6 pmol/mL; a Cyclic AMP produced, TSH 0.3 ng/mL, wild type TSHR of 28.9 pmol/mL. In addition, in [13], the Cyclic AMP produced, TSH 1 ng/mL, wild type TSHR came out at 52.5 pmol/mL and the Cyclic AMP produced, TSH 3 ng/mL, wild type TSHR was determined as 61.1 pmol/mL.

With 9D33 IgG (antibody), the Inhibition of binding (%) in assay [14] amounted to 64.8%; in [15] it was 9.4%; in [16], 15.3%; in [17], 7.9%; in [18], 20.9%; in assay [19], 63%.

B1: 5C9 IgG (antibody, from another filing, V domains shown)
VH: EVQLVESGGGLIQPGGSLRLSCAASGFTVSSNYMSWVRQAPGKGLEWVSVTYSGGSTSYADSVKGRFTISRDNSKNTLYLQMNSLRAEDTAVYYCARGGRYCSSISCYARSGCDYWGQGTLVTVSS
VL: AIQMTQSPSSLSASVGDRVTITCRASQSISNYLNWYQQKPGKAPKLLIYAASSLQSGVPSRFSGSGSGTDFTLTISSLQPEDFATYYCQQSYSSPSTTFGQGTKLEIK
Regarding B1, the Inhibition of binding (%) was 4.4% in [20]; 8.3% in [21]; 21.3% in [22]; 91.3% in assay [23]; 6.3% in assay [24]; 61.3% in assay [25].
